B1: GFP–Orc6 wild type (fly transgene) [Drosophila melanogaster] / Drosophila Orc2, endogenous in fly ovaries [Drosophila (endogenous in fly ovaries)] (parent)
chain 1: MTTLIEQLITKMGLREEPNVLEKTTELVRLLELRSTNVPLQINEYGKIVLCADLASCMIGIAFDKEQALKLSGLRKSQYLNNKRMFEKLLDLNKLASVNDICVQLGLNEVARKAEELMTLFKGVAATEDMGTDTSHPQYATMAVFQACRLLKKKVSKSKLMPFSNLRPSQFQLLEQQWERMIAKHHKESKVPSSTDMEGKLKENQNENIKGHEAKKAHKPPPEDYEIWKARMLAKAQAKLKELEASQSHMDSQLLEA
chain 2: MSASNKGGYKTPRKENLMSIENLTNSEEESEDLNTAMVGNAVESQPKVTSRRSTRRPSPTKKYQAYQKESNGKGQEERIVVNYVEMSDERSSDAEDQEEEESIEESENAARPAAKDLHLIQSEYNVAGTSMFGFNTPKKRDAMALAALNATPCTPKTPKTPRLGVKTPDTKRKKSMDQPKTPAHVRTRVKKQIAKIVADSDEDFSGDESDFRPSDEESSSSSSSSDAGNSSDNDAADDEPKTPSRARRAIVVPVLPKTPSAARLRQSARAKKSNEFVPESDGYFHSHASSKILTSDHTLDRLKNPRLAADRVFSLLSEIKTSAEHEGSINAIMEEYRSYFPKWMCILNEGFNILLYGLGSKHQLLQSFHREVLHKQTVLVVNGFFPSLTIKDMLDSITSDILDAGISPANPHEAVDMIEEEFALIPETHLFLIVHNLDGAMLRNVKAQAILSRLARIPNIHLLASIDHINTPLLWDQGKLCSFNFSWWDCTTMLPYTNETAFENSLLVQNSGELALSSMRSVFSSLTTNSRGIYMLIVKYQLKNKGNATYQGMPFRDLYSSCREAFLVSSDLALRAQLTEFLDHKLVKSKRSVDGSEQLTIPIDGALLQQFLEEQEKK

Variants of: B1
Assay: GFP fluorescence of anti-Orc2 immunoprecipitates
Conditions: with Drosophila Orc2, endogenous in fly ovaries [Drosophila (endogenous in fly ovaries)]; fly ovary extracts; three independent experiments; read off a plot

| response (arbitrary units) | Variant |
| --- | --- |
| 550 | chain 1 MTTLIEQLITKMGLREEPNVLEKTTELVRLLELRSTNVPLQINEYGKIVLCADLASCMIGIAFDKEQALKLSGLRKSQYLNNKRMFEKLLDLNKLASVNDICVQLGLNEVARKAEELMTLFKGVAATEDMGTDTSHPQYATMAVFQACRLLKKKVSKSKLMPFSNLRPSQFQLLEQQWERMIAKHHKESKVPSSTDMEGKLKENQNENIKGHEAKKAHKPPPEAAEIWKARMLAKAQAKLKELEASQSHMDSQLLEA [chain 1 D224A Y225A] |
| 470 | chain 1 MTTLIEQLITKMGLREEPNVLEKTTELVRLLELRSTNVPLQINEYGKIVLCADLASCMIGIAFDKEQALKLSGLRKSQYLNNKRMFEKLLDLNKLASVNDICVQLGLNEVARKAEELMTLFKGVAATEDMGTDTSHPQYATMAVFQACRLLKKKVSKSKLMPFSNLRPSQFQLLEQQWERMIAKHHKESKVPSSTDMEGKLKENQNENIKGHEAKKAHKPPPEDYEIAAARMLAKAQAKLKELEASQSHMDSQLLEA [chain 1 W228A K229A] |

— publication PMC3791464 (eLife, 2013)
